In publication PMC6174099:

Target: T1, Heat shock factor 1 (HSF1), wild-type, monomer (human), Q00613
T1 chain: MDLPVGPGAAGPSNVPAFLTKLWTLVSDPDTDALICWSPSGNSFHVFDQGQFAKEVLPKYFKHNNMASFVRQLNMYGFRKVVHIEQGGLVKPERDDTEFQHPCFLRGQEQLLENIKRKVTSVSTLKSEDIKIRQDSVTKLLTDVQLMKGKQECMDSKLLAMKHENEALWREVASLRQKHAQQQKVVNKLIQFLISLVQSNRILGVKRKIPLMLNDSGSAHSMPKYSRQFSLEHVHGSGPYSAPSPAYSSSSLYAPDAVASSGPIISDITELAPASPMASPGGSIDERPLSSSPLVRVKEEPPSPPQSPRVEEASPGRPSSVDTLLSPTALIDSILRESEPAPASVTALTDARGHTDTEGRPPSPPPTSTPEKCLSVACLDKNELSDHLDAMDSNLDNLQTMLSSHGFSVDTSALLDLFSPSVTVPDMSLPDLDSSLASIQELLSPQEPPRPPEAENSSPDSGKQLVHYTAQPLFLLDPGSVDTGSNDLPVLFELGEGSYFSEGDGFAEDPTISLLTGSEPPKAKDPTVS
Assay: SEC
Details: remark: other sources report otherwise

B1: Heat shock factor 1 (HSF1), wild-type, monomer, Q00613 1-529 (natural protein)
chain: T1 chain
stoichiometry N: 3
